Values joined by “and” are separate entries in the source; they are usually repeats but may differ in a detail not shown here. Equal values may be shown once. “Also recorded” adds a separate entry of the source. Residues, ends and D or L forms follow the SMILES beside them. *: point of attachment. HYNIC = NNc1ccc(C(=O)*)cn1
Experiments:
Huh-7 cells = format: binding, human; settings: 2 h
Description: The binding affinity of HYNIC-SP94 was assessed via a competitive displacement assay with ^99mTc tricine-EDDA/HYNIC-SP94[35]. Briefly, Huh-7 cells (1 × 10^6) and ^99mTc tricine-EDDA/HYNIC-SP94 (370 kBq) were added to each test tube in the presence of increasing concentrations of the SP94 peptide (from 0.001 nM to 10000 nM) and incubated for 2 h at 37 °C. To remove unbound ^99mTc tricine-EDDA/HYNIC-SP94, the cells were washed three times with cold PBS (1×, pH 7.2) and then centrifuged (600 rpm, 5 min). Radioactivity was determined using a γ-counter. The IC50 value was calculated by fitting experimental data with nonlinear regression using GraphPad Prism (GraphPad Software, San Diego, CA, USA).

[1] = In vivo stability (RP-HPLC of plasma); design: species or system balb/c mice; settings: within 60 min after tail vein injection (~30 MBq/mouse)
Description: The in vivo stability of ^99mTc tricine-EDDA/HYNIC-SP94 was evaluated in balb/c mice. ^99mTc tricine-EDDA/HYNIC-SP94 (~30 MBq/mouse) in 0.1 mL of saline was injected via the tail vein. Blood was then taken from the heart 10, 30, 60, 120 and 240 min after injection under anesthesia. Blood was collected in a heparin tube and immediately centrifuged (5000 rpm, 5 min) to obtain plasma. A total of 400 μL methanol/trichloromethane (V/V: 4/1) was added to 400 μL of plasma, fully mixed and centrifuged (5000 rpm, 5 min). RP-HPLC analysis was performed with 20 μL supernatant loading filtered by a 0.22 μm filter. The RP-HPLC was equipped with a Zorbax Eclipse XDB-C18 column (4.6 × 150 mm) and the following gradients were used at a flow rate of 1 mL/min: 98% solvent A (0.1% trifluoroacetic in 100% water) and 2% solvent B (0.09% trifluoroacetic in 80% ACN and 20% water): 0~5 min; 2% solvent A and 98% solvent B: 5~10 min; 98% solvent A and 2% solvent B: 10~15 min.

Huh-7 tumor-bearing mice = test: Biodistribution study; format: in vivo, balb/c nude mice; settings: mean ± SD; for Tumor uptake: Huh-7 tumor; for Tumor/muscle: ratio
Description: Four- to six-week-old male athymic nude mice were used for preparation of the xenograft tumor models. Huh-7 and Hela cells were subcutaneously injected at a concentration of 5 × 10^6 cells/mouse in the right front flank of the mice. The mice were ready for biodistribution and microSPECT/CT imaging study when the tumors reached an average diameter of 0.8~1.0 cm (3~4 weeks after inoculation). Animal care and experimental procedures were accordant with the Helsinki Declaration and were approved by the institutional animal care committee.
Fifteen Huh-7 tumor-bearing mice were randomly divided into three groups. ^99mTc tricine-EDDA/HYNIC-SP94 (~0.74 MBq/mouse) in 0.1 mL of saline was injected via tail vein. At 0.5 and 1.5 h p.i., the mice were anesthetized via 2% isoflurane and sacrificed by cervical dislocation. Immediately after sacrifice, the blood, tumors and organs of interest (heart, lungs, liver, spleen, stomach, small intestine, large intestine, kidneys, muscle and thyroid) were harvested, washed with saline and weighed. Radioactivity was determined using a γ-counter. To determine the specific uptake of ^99mTc tricine-EDDA/HYNIC-SP94, 5 mice received an intravenous injection of 200 μg of unlabeled HYNIC-SP94 as a blocking agent 30 min prior to injection of ^99mTc tricine-EDDA/HYNIC-SP94 (~0.74 MBq/mouse). The mice were sacrificed 30 min p.i. and the experiments performed as described above. Absorption of organs and tissues was calculated as a percentage of the injected dose per gram of tissue mass (%ID/g).

[2] = In vitro stability of ^99mTc-labeled complexes (radio-TLC); format: in vitro ADME; settings: PBS, normal saline and FBS, 37 °C, 1-12 h
Description: The in vitro stability of the radiolabeled peptide was tested by incubating it in PBS, saline and FBS for 1, 2, 4, 6 and 12 h at 37 °C. After incubation, ^99mTc-labeled complexes were assessed by radio-TLC. Results were plotted as the RCP (%) at different time points.

[3] = In vitro stability of ^188Re-HYNIC-SP94 (radio-TLC); format: in vitro ADME; settings: FBS, room temperature, 48 h, mean ± SD
Description: The in vitro stability of ^188Re-HYNIC-SP94 was evaluated by incubating ^188Re-HYNIC-SP94 in normal saline and FBS at room temperature. RCP was analyzed by radio-TLC at 1, 4, 8, 18, 26 and 48 h after incubation to determine the stability.

[4] = 0.5 h p.i., blocking: 200 μg unlabeled HYNIC-SP94 i.v. 30 min prior

SMILES: CC[C@H](C)[C@H](NC(=O)[C@H](CO)NC(=O)[C@H](Cc1ccccc1)NC(=O)[C@H](CO)NC(=O)c1ccc(NN)nc1)C(=O)N[C@H](C(=O)N[C@@H](Cc1c[nH]cn1)C(=O)N[C@H](C(=O)N1CCC[C@H]1C(=O)N[C@H](C(=O)N[C@@H](CC(C)C)C(=O)N1CCC[C@H]1C(=O)N[C@@H](CC(C)C)C(=O)O)[C@@H](C)CC)[C@@H](C)O)[C@@H](C)CC [HYNIC-SP94, 6-hydrazinonicotinic acid-SP94] ({HYNIC}-SFSIIHTPILPL-OH)
- IC50 (Huh-7 cells): 4.49 ± 0.2 nM

SMILES: CC[C@H](C)[C@H](NC(=O)[C@H](CO)NC(=O)[C@H](Cc1ccccc1)NC(=O)[C@H](CO)NC(=O)c1ccc(NN)nc1)C(=O)N[C@H](C(=O)N[C@@H](Cc1c[nH]cn1)C(=O)N[C@H](C(=O)N1CCC[C@H]1C(=O)N[C@H](C(=O)N[C@@H](CC(C)C)C(=O)N1CCC[C@H]1C(=O)N[C@@H](CC(C)C)C(=O)O)[C@@H](C)CC)[C@@H](C)O)[C@@H](C)CC [^99mTc tricine-EDDA/HYNIC-SP94, metal not drawn] ({HYNIC}-SFSIIHTPILPL-OH)
- radiochemical purity (RCP) maintained in vivo [1]: about 66%
- Blood uptake (Huh-7 tumor-bearing mice; 0.5 h p.i., blocking): 0.99 ± 0.12 %ID/g
- Blood uptake (Huh-7 tumor-bearing mice; 0.5 h p.i., non-blocking): 1.17 ± 0.37 %ID/g
- Blood uptake (Huh-7 tumor-bearing mice; 1.5 h p.i., non-blocking): 0.49 ± 0.08 %ID/g
- Heart uptake (Huh-7 tumor-bearing mice; [4]): 0.58 ± 0.03 %ID/g
- Heart uptake (Huh-7 tumor-bearing mice; 0.5 h p.i., non-blocking, i.v. ~0.74 MBq/mouse): 0.54 ± 0.13 %ID/g
- Heart uptake (Huh-7 tumor-bearing mice; 1.5 h p.i., non-blocking): 0.34 ± 0.03 %ID/g
- Tumor uptake (Huh-7 tumor-bearing mice; [4]): 0.34 ± 0.09 %ID/g
- Tumor uptake (Huh-7 tumor-bearing mice; 0.5 h p.i., non-blocking): 1.02 ± 0.26 %ID/g
- Tumor uptake (Huh-7 tumor-bearing mice; 1.5 h p.i., non-blocking): 0.74 ± 0.07 %ID/g
- Kidney uptake (Huh-7 tumor-bearing mice; 0.5 h p.i., blocking): 7.58±2.25 %ID/g
- Kidney uptake (Huh-7 tumor-bearing mice; 0.5 h p.i., non-blocking): 7.40 ± 2.66 %ID/g
- Kidney uptake (Huh-7 tumor-bearing mice; 1.5 h p.i., non-blocking): 6.14 ± 0.10 %ID/g
- Large intestine uptake (Huh-7 tumor-bearing mice; 0.5 h p.i., blocking): 0.54 ± 0.08 %ID/g
- Large intestine uptake (Huh-7 tumor-bearing mice; 0.5 h p.i., non-blocking): 0.70 ± 0.09 %ID/g
- Large intestine uptake (Huh-7 tumor-bearing mice; 1.5 h p.i., non-blocking): 0.48 ± 0.02 %ID/g
- Liver uptake (Huh-7 tumor-bearing mice; 0.5 h p.i., blocking): 2.07 ± 0.20 %ID/g
- Liver uptake (Huh-7 tumor-bearing mice; 0.5 h p.i., non-blocking): 2.39 ± 1.55 %ID/g
- Liver uptake (Huh-7 tumor-bearing mice; 1.5 h p.i., non-blocking): 1.98 ± 0.15 %ID/g
- Lung uptake (Huh-7 tumor-bearing mice; 0.5 h p.i., blocking): 2.06 ± 0.18 %ID/g
- Lung uptake (Huh-7 tumor-bearing mice; 0.5 h p.i., non-blocking): 2.10 ± 0.43 %ID/g
- Lung uptake (Huh-7 tumor-bearing mice; 1.5 h p.i., non-blocking): 1.45 ± 0.04 %ID/g
- Muscle uptake (Huh-7 tumor-bearing mice; 0.5 h p.i., blocking): 0.23 ± 0.05 %ID/g
- Muscle uptake (Huh-7 tumor-bearing mice; 0.5 h p.i., non-blocking): 0.30 ± 0.05 %ID/g
- Muscle uptake (Huh-7 tumor-bearing mice; 1.5 h p.i., non-blocking): 0.16 ± 0.02 %ID/g
- Small intestine uptake (Huh-7 tumor-bearing mice; 0.5 h p.i., blocking): 0.78 ± 0.11 %ID/g
- Small intestine uptake (Huh-7 tumor-bearing mice; 0.5 h p.i., non-blocking): 0.97 ± 0.22 %ID/g
- Small intestine uptake (Huh-7 tumor-bearing mice; 1.5 h p.i., non-blocking): 0.73 ± 0.07 %ID/g
- Spleen uptake (Huh-7 tumor-bearing mice; 0.5 h p.i., blocking): 1.05 ± 0.27 %ID/g
- Spleen uptake (Huh-7 tumor-bearing mice; 0.5 h p.i., non-blocking): 0.84 ± 0.30 %ID/g
- Spleen uptake (Huh-7 tumor-bearing mice; 1.5 h p.i., non-blocking): 0.67 ± 0.04 %ID/g
- Stomach uptake (Huh-7 tumor-bearing mice; 0.5 h p.i., blocking): 0.84 ± 0.06 %ID/g
- Stomach uptake (Huh-7 tumor-bearing mice; 0.5 h p.i., non-blocking): 0.85 ± 0.18 %ID/g
- Stomach uptake (Huh-7 tumor-bearing mice; 1.5 h p.i., non-blocking): 0.68 ± 0.09 %ID/g
- Thyroid uptake (Huh-7 tumor-bearing mice; 0.5 h p.i., blocking): 0.52 ± 0.04 %ID/g
- Thyroid uptake (Huh-7 tumor-bearing mice; 0.5 h p.i., non-blocking): 0.47 ± 0.09 %ID/g
- Thyroid uptake (Huh-7 tumor-bearing mice; 1.5 h p.i., non-blocking): 0.27 ± 0.03 %ID/g
- Tumor/muscle (Huh-7 tumor-bearing mice; 0.5 h p.i., blocking): 1.56 ± 0.06
- Tumor/muscle (Huh-7 tumor-bearing mice; 0.5 h p.i., non-blocking): 3.96 ± 0.06
- Tumor/muscle (Huh-7 tumor-bearing mice; 1.5 h p.i., non-blocking): 4.55 ± 0.10
- in vitro stability (RCP) [2]: highly stable; also recorded: slightly better

SMILES: CC[C@H](C)[C@H](NC(=O)[C@H](CO)NC(=O)[C@H](Cc1ccccc1)NC(=O)[C@H](CO)NC(=O)c1ccc(NN)nc1)C(=O)N[C@H](C(=O)N[C@@H](Cc1c[nH]cn1)C(=O)N[C@H](C(=O)N1CCC[C@H]1C(=O)N[C@H](C(=O)N[C@@H](CC(C)C)C(=O)N1CCC[C@H]1C(=O)N[C@@H](CC(C)C)C(=O)O)[C@@H](C)CC)[C@@H](C)O)[C@@H](C)CC [^188Re-HYNIC-SP94, metal not drawn] ({HYNIC}-SFSIIHTPILPL-OH)
- RCP after incubation [3]: 91.67 ± 2.36% and > 90%
